B1: peptide HD2 (from tick evasin EVA4) / CCL19 (biotinylated, synthetic) (parent complex)
chain 1: EEDDYTAYAPLTCYFT
chain 2: GTNDAEDCCLSVTQKPIPGYIVRNFHYLLIKDGCRVPAVVFTTLRGRQLCAPPDQPWVERIIQRLQRTSAKMKRRSS

Variants of: B1

| Variant | enrichment |
| --- | --- |
| chain 1 EEDDYTAYAPLTCYTT [chain 1 F15T] | -3.97 log2 (difference from the parental peptide) |
| chain 1 EEDDYTAYAPLTCYPT [chain 1 F15P] | -6.33 log2 (difference from the parental peptide) |
| chain 1 EEDDYTAYAPLTCYHT [chain 1 F15H] | -3.96 log2 (difference from the parental peptide) |
| chain 1 EEDDYTAYAPLTCYKT [chain 1 F15K] | -4.98 log2 (difference from the parental peptide) |
| chain 1 EEDDYTAYAPLTCYQT [chain 1 F15Q] | -4.06 log2 (difference from the parental peptide) |
| chain 1 EEDDYTAYAPLTCYVT [chain 1 F15V] | -3.63 log2 (difference from the parental peptide) |
| chain 1 EEDDYTAYAPLTCYRT [chain 1 F15R] | -6.02 log2 (difference from the parental peptide) |
| chain 1 EEDDYTAYAPLTCYET [chain 1 F15E] | -4.2 log2 (difference from the parental peptide) |
| chain 1 EEDDYTAYAPLTCYYT [chain 1 F15Y] | -1.04 log2 (difference from the parental peptide) |
| chain 1 EEDDYTAYAPLTCYFW [chain 1 T16W] | 0.831 log2 (difference from the parental peptide) |
| chain 1 EEDDYTAYAPLTCYFG [chain 1 T16G] | -4.08 log2 (difference from the parental peptide) |
| chain 1 EEDDYTAYAPLTCYFM [chain 1 T16M] | 0.0438 log2 (difference from the parental peptide) |
| chain 1 EEDDYTAYAPLTCYFY [chain 1 T16Y] | -0.692 log2 (difference from the parental peptide) |
| chain 1 EEDDYTAYAPLTCYFF [chain 1 T16F] | -0.403 log2 (difference from the parental peptide) |
| chain 1 EEDDYTAYAPLTCYFC [chain 1 T16C] | -6.65 log2 (difference from the parental peptide) |
| chain 1 EEDDYTAYAPLTCYFR [chain 1 T16R] | -6.57 log2 (difference from the parental peptide) |
| chain 1 EEDDYTAYAPLTCYFA [chain 1 T16A] | -1.59 log2 (difference from the parental peptide) |
| chain 1 EEDDYTAYAPLTCYFS [chain 1 T16S] | -1.7 log2 (difference from the parental peptide) |
| chain 1 EEDDYTAYAPLTCYFD [chain 1 T16D] | -1.5 log2 (difference from the parental peptide) |
| chain 1 EEDDYTAYAPLTCYFQ [chain 1 T16Q] | -5.8 log2 (difference from the parental peptide) |
| chain 1 EVDDYTAYAPLTCYFT [chain 1 E2V] | 0.565 log2 (difference from the parental peptide) |
| chain 1 ETDDYTAYAPLTCYFT [chain 1 E2T] | -1.16 log2 (difference from the parental peptide) |
| chain 1 ESDDYTAYAPLTCYFT [chain 1 E2S] | -0.165 log2 (difference from the parental peptide) |

| Variant | enrichment |
| --- | --- |
| chain 1 ELDDYTAYAPLTCYFT [chain 1 E2L] | 0.769 log2 (difference from the parental peptide) |
| chain 1 ENDDYTAYAPLTCYFT [chain 1 E2N] | -1.08 log2 (difference from the parental peptide) |
| chain 1 EMDDYTAYAPLTCYFT [chain 1 E2M] | 0.392 log2 (difference from the parental peptide) |
| chain 1 EDDDYTAYAPLTCYFT [chain 1 E2D] | 2.11 log2 (difference from the parental peptide) |
| chain 1 ERDDYTAYAPLTCYFT [chain 1 E2R] | -2.64 log2 (difference from the parental peptide) |
| chain 1 EEDDYTAYSPLTCYFT [chain 1 A9S] | -6.72 log2 (difference from the parental peptide) |
| chain 1 EEDDYTAYMPLTCYFT [chain 1 A9M] | -0.965 log2 (difference from the parental peptide) |
| chain 1 EEDDYTAYLPLTCYFT [chain 1 A9L] | -1.81 log2 (difference from the parental peptide) |
| chain 1 EEDDYTAYCPLTCYFT [chain 1 A9C] | -8.06 log2 (difference from the parental peptide) |
| chain 1 EEDDYTAYIPLTCYFT [chain 1 A9I] | -3.88 log2 (difference from the parental peptide) |
| chain 1 EEDDYTAYTPLTCYFT [chain 1 A9T] | -6.55 log2 (difference from the parental peptide) |
| chain 1 EEDDYTAYYPLTCYFT [chain 1 A9Y] | 0.673 log2 (difference from the parental peptide) |
| chain 1 EEDDYTAYRPLTCYFT [chain 1 A9R] | -5.91 log2 (difference from the parental peptide) |
| chain 1 EEDDYTAYNPLTCYFT [chain 1 A9N] | -3.82 log2 (difference from the parental peptide) |
| chain 1 EEDDYTAYFPLTCYFT [chain 1 A9F] | -2.77 log2 (difference from the parental peptide) |
| chain 1 EEDDYMAYAPLTCYFT [chain 1 T6M] | 1.73 log2 (difference from the parental peptide) |
| chain 1 EEDDYRAYAPLTCYFT [chain 1 T6R] | -3.39 log2 (difference from the parental peptide) |
| chain 1 EEDDYSAYAPLTCYFT [chain 1 T6S] | 0.379 log2 (difference from the parental peptide) |
| chain 1 EEDDYWAYAPLTCYFT [chain 1 T6W] | 7.55 log2 (difference from the parental peptide) |
| chain 1 EEDDYGAYAPLTCYFT [chain 1 T6G] | 1.65 log2 (difference from the parental peptide) |
| chain 1 EEDDYCAYAPLTCYFT [chain 1 T6C] | -7.51 log2 (difference from the parental peptide) |
| chain 1 EEDDYYAYAPLTCYFT [chain 1 T6Y] | 4.88 log2 (difference from the parental peptide) |
| chain 1 EEDDYTAYAPLTCFFT [chain 1 Y14F] | -2.54 log2 (difference from the parental peptide) |

| Variant | enrichment |
| --- | --- |
| chain 1 EEDDYTAYAPLTCRFT [chain 1 Y14R] | -7.07 log2 (difference from the parental peptide) |
| chain 1 EEDDYTAYAPLTCGFT [chain 1 Y14G] | -9.47 log2 (difference from the parental peptide) |
| chain 1 EEDDYTAYAPLTCPFT [chain 1 Y14P] | -7.82 log2 (difference from the parental peptide) |
| chain 1 EEDQYTAYAPLTCYFT [chain 1 D4Q] | -5.46 log2 (difference from the parental peptide) |
| chain 1 EEDFYTAYAPLTCYFT [chain 1 D4F] | -1.53 log2 (difference from the parental peptide) |
| chain 1 EEDWYTAYAPLTCYFT [chain 1 D4W] | 0.498 log2 (difference from the parental peptide) |
| chain 1 EEDIYTAYAPLTCYFT [chain 1 D4I] | -2.59 log2 (difference from the parental peptide) |
| chain 1 EEDVYTAYAPLTCYFT [chain 1 D4V] | -4.18 log2 (difference from the parental peptide) |
| chain 1 EEDSYTAYAPLTCYFT [chain 1 D4S] | -6.25 log2 (difference from the parental peptide) |
| chain 1 EEDMYTAYAPLTCYFT [chain 1 D4M] | -3.6 log2 (difference from the parental peptide) |
| chain 1 EEDLYTAYAPLTCYFT [chain 1 D4L] | -2.61 log2 (difference from the parental peptide) |
| chain 1 EEDDYTAYAPLICYFT [chain 1 T12I] | 5.78 log2 (difference from the parental peptide) |
| chain 1 EEDDYTAYAPLECYFT [chain 1 T12E] | -6.93 log2 (difference from the parental peptide) |
| chain 1 EEDDYTAYAPLHCYFT [chain 1 T12H] | 0.389 log2 (difference from the parental peptide) |
| chain 1 EEDDYTAYAPLLCYFT [chain 1 T12L] | 2.69 log2 (difference from the parental peptide) |
| chain 1 EEDDYTAYAPLCCYFT [chain 1 T12C] | -7.61 log2 (difference from the parental peptide) |
| chain 1 EEDDYTAYAPLFCYFT [chain 1 T12F] | 3.41 log2 (difference from the parental peptide) |
| chain 1 EEDDYTAYAPLMCYFT [chain 1 T12M] | 1.53 log2 (difference from the parental peptide) |
| chain 1 EEDDYTHYAPLTCYFT [chain 1 A7H] | -0.764 log2 (difference from the parental peptide) |
| chain 1 EEDDYTSYAPLTCYFT [chain 1 A7S] | -2.1 log2 (difference from the parental peptide) |
| chain 1 EEDDYTNYAPLTCYFT [chain 1 A7N] | -1.33 log2 (difference from the parental peptide) |
| chain 1 EEDDYTEYAPLTCYFT [chain 1 A7E] | -0.397 log2 (difference from the parental peptide) |
| chain 1 EEDDYTKYAPLTCYFT [chain 1 A7K] | -3.29 log2 (difference from the parental peptide) |

| Variant | enrichment |
| --- | --- |
| chain 1 EEDDYTDYAPLTCYFT [chain 1 A7D] | 2 log2 (difference from the parental peptide) |
| chain 1 EEDDYTMYAPLTCYFT [chain 1 A7M] | 2.5 log2 (difference from the parental peptide) |
| chain 1 EEDDYTGYAPLTCYFT [chain 1 A7G] | -5.86 log2 (difference from the parental peptide) |
| chain 1 EEDDYTYYAPLTCYFT [chain 1 A7Y] | 4.06 log2 (difference from the parental peptide) |
| chain 1 EEDDYTAYAPLTSYFT [chain 1 C13S] | -6.7 log2 (difference from the parental peptide) |
| chain 1 NEDDYTAYAPLTCYFT [chain 1 E1N] | -2.91 log2 (difference from the parental peptide) |
| chain 1 HEDDYTAYAPLTCYFT [chain 1 E1H] | -5.95 log2 (difference from the parental peptide) |
| chain 1 FEDDYTAYAPLTCYFT [chain 1 E1F] | -0.113 log2 (difference from the parental peptide) |
| chain 1 REDDYTAYAPLTCYFT [chain 1 E1R] | -6.95 log2 (difference from the parental peptide) |
| chain 1 YEDDYTAYAPLTCYFT [chain 1 E1Y] | 1.7 log2 (difference from the parental peptide) |
| chain 1 KEDDYTAYAPLTCYFT [chain 1 E1K] | -4.04 log2 (difference from the parental peptide) |
| chain 1 MEDDYTAYAPLTCYFT [chain 1 E1M] | -5.78 log2 (difference from the parental peptide) |
| chain 1 GEDDYTAYAPLTCYFT [chain 1 E1G] | -6.21 log2 (difference from the parental peptide) |
| chain 1 PEDDYTAYAPLTCYFT [chain 1 E1P] | -6.51 log2 (difference from the parental peptide) |
| chain 1 SEDDYTAYAPLTCYFT [chain 1 E1S] | -6.42 log2 (difference from the parental peptide) |
| chain 1 TEDDYTAYAPLTCYFT [chain 1 E1T] | -5.43 log2 (difference from the parental peptide) |
| chain 1 DEDDYTAYAPLTCYFT [chain 1 E1D] | 0.567 log2 (difference from the parental peptide) |
| chain 1 LEDDYTAYAPLTCYFT [chain 1 E1L] | -2.92 log2 (difference from the parental peptide) |
| chain 1 AEDDYTAYAPLTCYFT [chain 1 E1A] | -5.3 log2 (difference from the parental peptide) |
| chain 1 EEDDYTAYAGLTCYFT [chain 1 P10G] | -5.73 log2 (difference from the parental peptide) |
| chain 1 EEDDYTAYAVLTCYFT [chain 1 P10V] | -9.35 log2 (difference from the parental peptide) |
| chain 1 EEDDYTAYALLTCYFT [chain 1 P10L] | -6.31 log2 (difference from the parental peptide) |
| chain 1 EEDDYTAYATLTCYFT [chain 1 P10T] | -5.84 log2 (difference from the parental peptide) |

| Variant | enrichment |
| --- | --- |
| chain 1 EEDDYTAYAPWTCYFT [chain 1 L11W] | -0.0314 log2 (difference from the parental peptide) |
| chain 1 EEDDYTAYAPTTCYFT [chain 1 L11T] | -3.41 log2 (difference from the parental peptide) |
| chain 1 EEDDYTAYAPRTCYFT [chain 1 L11R] | -3.8 log2 (difference from the parental peptide) |
| chain 1 EEDDYTAYAPCTCYFT [chain 1 L11C] | -4.39 log2 (difference from the parental peptide) |
| chain 1 EEDDYTAYAPKTCYFT [chain 1 L11K] | -3.64 log2 (difference from the parental peptide) |
| chain 1 EEDDYTAYAPPTCYFT [chain 1 L11P] | -5.49 log2 (difference from the parental peptide) |
| chain 1 EEDDYTAYAPITCYFT [chain 1 L11I] | 1.76 log2 (difference from the parental peptide) |
| chain 1 EEDDYTAYAPMTCYFT [chain 1 L11M] | -1.53 log2 (difference from the parental peptide) |
| chain 1 EEWDYTAYAPLTCYFT [chain 1 D3W] | 0.0843 log2 (difference from the parental peptide) |
| chain 1 EELDYTAYAPLTCYFT [chain 1 D3L] | -2.95 log2 (difference from the parental peptide) |
| chain 1 EEYDYTAYAPLTCYFT [chain 1 D3Y] | -0.734 log2 (difference from the parental peptide) |
| chain 1 EENDYTAYAPLTCYFT [chain 1 D3N] | -6.84 log2 (difference from the parental peptide) |
| chain 1 EEGDYTAYAPLTCYFT [chain 1 D3G] | -6.43 log2 (difference from the parental peptide) |
| chain 1 EEFDYTAYAPLTCYFT [chain 1 D3F] | -3.58 log2 (difference from the parental peptide) |
| chain 1 EEDDYTAWAPLTCYFT [chain 1 Y8W] | 0.479 log2 (difference from the parental peptide) |
| chain 1 EEDDYTASAPLTCYFT [chain 1 Y8S] | -6.72 log2 (difference from the parental peptide) |
| chain 1 EEDDYTAFAPLTCYFT [chain 1 Y8F] | -1.35 log2 (difference from the parental peptide) |
| chain 1 EEDDYTAHAPLTCYFT [chain 1 Y8H] | -6.54 log2 (difference from the parental peptide) |
| chain 1 EEDDSTAYAPLTCYFT [chain 1 Y5S] | -6.07 log2 (difference from the parental peptide) |
| chain 1 EEDDNTAYAPLTCYFT [chain 1 Y5N] | -6.68 log2 (difference from the parental peptide) |

Reference: paper PMC11969024 (2025)
